From patent publication US10456446B2, “Use of human small leucine zipper protein in osteogenesis procedure” (Korea University Research and Business Foundation, priority 2013, dated 2019)

Tested on: primary MSCs and C3H10T1/2 cells
Experiment: Osteoblast differentiation in primary MSCs and C3H10T1/2 cells
Type: cell-based
Conditions: differentiation medium for 8 days
Description: Primary human mesenchymal stem cells (MSCs), C3H10T1/2, 293T and MEF cells were cultured in a DMEM to which thermally inactivated 10% FBS and penicillin (100 U/mL)/streptomycin (100 μg/mL) were added. All cell types were cultured in a humidified incubator containing CO2 5% under a temperature condition of 37° C. In order to induce osteoblast differentiation, the medium was exchanged with a DMEM in which 50 μg/mL of ascorbic acid, 10 mM of β-glycerophosphate and 10% FBS were contained for 8 days. The differentiation medium was changed once every two days.
C3H10T1/2 and 293T cells were plated in a 12-well culture dish at a density of 2×10^5 cells/well and incubated for 24 hours. Then, according to instructions of the manufacturer, the cells were transfected with a 0.2 μg of reporter genes and 0.1 to 0.5 μg of a laboratory plasmid using Lipofectamine 2000 or Genefectine. After 24 hours, the cells were cultured in a serum-free DMEM with or without 10 nM of rosiglitazone. siRNAs were prepared using sLZIP and HDAC target sequences (Table 1). […]
Therefore, in order to characterize a potential role of sLZIP in the transcriptional activity of Runx2 by inhibiting the transcriptional activity of PPARγ2, the transcriptional activity of Runx2 was examined. […] A promoter activity was measured by luciferase analysis. […]

B1: sLZIP: human small leucine-zipper protein, isoform of LZIP, 354 amino acids, no transmembrane domain, GenBank FJ263669, SEQ ID NO: 1 (protein, listed as Homo sapiens)
chain: MELELDAGDQDLLAFLLEESGDLGTAPDEAVRAPLDWALPLSEVPSDWEVDDLLCSLLSPPASLNILSSSNPCLVHHDHTYSLPRETVSMDLESESCRKEGTQMTPQHMEELAEQEIARLVLTDEEKSLLEKEGLILPETLPLTKTEEQILKRVRRKIRNKRSAQESRRKKKVYVGGLESRVLKYTAQNMELQNKVQLLEEQNLSLLDQLRKLQAMVIEISNKTSSSSMYSSDTRGSLPAEHGVLSRQLRALPSEDPYQLELPALQSEVPKDSTHQWLDGSDCVLQAPGNTSCLLHYMPQAPSAEPPLEWPFPDLFSEPLCRGPILPLQANLTRKGGWLPTGSPSVILQDRYSG
osteoblast differentiation: increased osteoblast differentiation
